According to patent publication EP2225268B1:

Experiments:
[1] = target: Native NGAL purchased from Diagnostics Development (Uppsala, Sweden), non-reduced (UniProt P80188); test: … sandwich CMIA, capture HYB 211-01, detection acridinium-HYB 211-02; NGAL 250 ng/mL
[2] = target: Wild-type recombinant human NGAL dimer calibrators treated with DTT (human) (UniProt P80188); test: as above
[3] = target: Wild-type recombinant human NGAL dimer expressed in CHO cells (human) (UniProt P80188); test: as above
[4] = target: Wild-type recombinant human NGAL monomer expressed in CHO cells (human) (UniProt P80188); test: as above
[5] = target: Wild-type recombinant human NGAL dimer calibrators treated with DTT (human) (UniProt P80188); test: … sandwich CMIA, capture HYB 211-01, detection acridinium-HYB 211-02; curve fit with monomer calibrators; target 50 ng/mL
[6] = target: Wild-type recombinant human NGAL dimer expressed in CHO cells (human) (UniProt P80188); test: as above
[7] = target: Wild-type recombinant human NGAL monomer expressed in CHO cells (human) (UniProt P80188); test: as above
[8] = target: Wild-type recombinant human NGAL dimer calibrators treated with DTT (human) (UniProt P80188); test: … sandwich CMIA, capture HYB 211-01, detection acridinium-HYB 211-02; curve fit with monomer calibrators; target 600 ng/mL
[9] = target: Wild-type recombinant human NGAL dimer expressed in CHO cells (human) (UniProt P80188); test: as above
[10] = target: Wild-type recombinant human NGAL monomer expressed in CHO cells (human) (UniProt P80188); test: as above
[11] = target: Wild-type recombinant human NGAL dimer calibrators treated with DTT (human) (UniProt P80188); test: … sandwich CMIA, capture HYB 211-01, detection acridinium-HYB 211-02; DTT-treated against untreated dimer calibrator; target 50 ng/mL
[12] = target: Wild-type recombinant human NGAL dimer calibrators treated with DTT (human) (UniProt P80188); test: … sandwich CMIA, capture HYB 211-01, detection acridinium-HYB 211-02; DTT-treated against untreated dimer calibrator; target 250 ng/mL
[13] = target: Wild-type recombinant human NGAL dimer expressed in CHO cells (human) (UniProt P80188); test: … sandwich CMIA, capture 1-2322-455, detection acridinium-1-903-430; NGAL 600 ng/mL
[14] = target: Wild-type recombinant human NGAL monomer expressed in CHO cells (human) (UniProt P80188); test: as above
[15] = target: Wild-type recombinant human NGAL dimer expressed in CHO cells (human) (UniProt P80188); test: … sandwich CMIA, capture 1-2322-455, detection acridinium-1-903-430; NGAL 1000 ng/mL
[16] = target: Wild-type recombinant human NGAL monomer expressed in CHO cells (human) (UniProt P80188); test: as above
[17] = target: Wild-type recombinant human NGAL dimer calibrators with TCEP in the reaction mixture (human) (UniProt P80188); test: … sandwich CMIA, capture 1-2322-455, detection acridinium-1-903-430; TCEP in reaction; NGAL 5 ng/mL
[18] = target: Wild-type recombinant human NGAL dimer calibrators with TCEP in the reaction mixture (human) (UniProt P80188); test: … sandwich CMIA, capture 1-2322-455, detection acridinium-1-903-430; TCEP in reaction; NGAL 600 ng/mL
[19] = target: Wild-type recombinant human NGAL dimer expressed in CHO cells (human) (UniProt P80188); test: … sandwich CMIA, capture 1-2322-455, detection acridinium-1-903-430; NGAL Dimer Low, 150 ng/mL dimer calibrator
[20] = target: Wild-type recombinant human NGAL monomer expressed in CHO cells (human) (UniProt P80188); test: … sandwich CMIA, capture 1-2322-455, detection acridinium-1-903-430; monomer calibrator plus TCEP; NGAL 250 ng/mL
[21] = target: Wild-type recombinant human NGAL monomer expressed in CHO cells (human) (UniProt P80188); test: … sandwich CMIA, capture 1-2322-455, detection acridinium-1-903-430; monomer calibrator plus TCEP; NGAL 1000 ng/mL
[22] = target: Wild-type recombinant human NGAL dimer calibrators with TCEP in the reaction mixture (human) (UniProt P80188); test: … sandwich CMIA, capture 1-2322-455, detection acridinium-1-903-430; TCEP in reaction; curve fit with monomer calibrators; target 50 ng/mL
[23] = target: Wild-type recombinant human NGAL dimer calibrators with TCEP in the reaction mixture (human) (UniProt P80188); test: … sandwich CMIA, capture 1-2322-455, detection acridinium-1-903-430; TCEP in reaction; curve fit with monomer calibrators; target 1000 ng/mL
[24] = target: Wild-type recombinant human NGAL monomer expressed in CHO cells (human) (UniProt P80188); test: … sandwich CMIA, capture 1-2322-455, detection acridinium-1-903-430; monomer calibrator plus TCEP; curve fit with monomer calibrators; target 600 ng/mL
[25] = target: Wild-type recombinant human NGAL monomer expressed in CHO cells (human) (UniProt P80188); test: … sandwich CMIA, capture 1-2322-455, detection acridinium-1-903-430; monomer calibrator plus TCEP; curve fit with monomer calibrators; target 1000 ng/mL

“anti-NGAL antibody HYB 211-01 from AntibodyShop A/S, Gentofte, Denmark” showed an RLUs [1] of 620000 RLUs, an RLUs [2] of 378000 RLUs and an RLUs [3] of 142000 RLUs. The RLUs [4] was 396000 RLUs, the Curve Fit Results [5] was 49 ng/mL and the Curve Fit Results [6] was 14.1 ng/mL. It also gave a Curve Fit Results [7] of 49.5 ng/mL, a Curve Fit Results [8] of 574 ng/mL and a Curve Fit Results [9] of 161 ng/mL. For the same molecule, the Curve Fit Results [10] was 598 ng/mL, the % Increase due to DTT [11] was 247% and the % Increase due to DTT [12] was 229%.

B1: antibody produced by murine hybridoma cell line 1-2322-455 having ATCC Accession No. PTA-8024 (antibody, V domains shown)
VH: EVQLVESGGGLVQPGGSLKLSCAASGFTFNNYYMSWVRQTPERRLEWVAYISSSGGSTYYSDSVRGRFTISRDTARNTLYLQMTSLKSEDTAMYYCARHFGDYSYFDYWGQGTTLTVSS
VL: DIQMTQSPASLSASVGETVTITCRASENFYSYLAWYQQKQGKSPQLLVYNAKTLAEGVPSRFSGSGSGTQFSLKINSLQPEDFGTYYCQHHYDIPLTFGAGTKLELKR
In the case of B1, the RLUs [13] is reported as 680000 RLUs, the RLUs [14] is reported as 1.51e+06 RLUs and the RLUs [15] is reported as 993000 RLUs. For the same molecule, the RLUs [16] was 1.93e+06 RLUs, the RLUs [17] was 15000 RLUs and the RLUs [18] was 989000 RLUs. The NGAL concentration detected [19] was 33.9 ng/mL, the RLUs [20] was 928000 RLUs and the RLUs [21] was 1.95e+06 RLUs. The Curve Fit Results [22] was 24.5 ng/mL, the Curve Fit Results [23] was 497 ng/mL and the Curve Fit Results [24] was 608 ng/mL. For the same molecule, the Curve Fit Results [25] was 1030 ng/mL.
